Our source for the Kd values is publication PMC10183829 (2023).

B6: ATG8A (purified) (natural protein)
chain: MAKSSFKISNPLEARMSESSRIREKYPDRIPVIVEKAGQSDVPDIDKKKYLVPADLTVGQFVYVVRKRIKLGAEKAIFVFVKNTLPPTAALMSAIYEEHKDEDGFLYMTYSGENTFG

No end group written: not given here. TAMRA = 5(6)-carboxytetramethylrhodamine

The target in the assay “ATG8A (purified)” is B6. The assay can be described thus: FP.
The target in the next assay is HsUFM1 (purified) (human, UniProt P61960 1-85). The assay can be described thus: ITC. A general note: ITC needs no label: the signal is the heat of the interaction.
A further assay concerns the target GABARAP (purified) (human, UniProt O95166 3-116). The assay is described as follows: ITC.
The target in a further assay is cAIM mut. The assay can be described thus: FP.
A further assay has as its target sAIM3. The assay is described as follows: FP.

By Kd is commonly meant the equilibrium constant for the complex coming apart. Higher therefore signals weaker binding.

Chain of GABARAP (purified) (O95166 3-116): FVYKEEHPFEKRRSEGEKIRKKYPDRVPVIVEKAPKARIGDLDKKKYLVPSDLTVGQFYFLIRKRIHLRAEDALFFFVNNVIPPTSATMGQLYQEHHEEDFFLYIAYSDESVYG
Chain of HsUFM1 (purified) (P61960 whole entry): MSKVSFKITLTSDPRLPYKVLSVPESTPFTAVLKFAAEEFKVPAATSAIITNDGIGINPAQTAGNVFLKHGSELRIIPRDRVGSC

B1: peptide derived from sAIM2 (AtC53 IDR) (peptide)
chain: {TAMRA}-ETPEIDWDVSMVEEV
In the assay with ATG8A (purified), B1 yielded a Kd of 56.8 µM.

B2: peptide derived from sAIM1 (AtC53 IDR) (peptide)
chain: {TAMRA}-AADSIDWDITVET
In the assay with ATG8A (purified), B2 came in with a Kd of 97.6 µM.

B3: peptide derived from the cAIM of the AtC53 IDR (peptide)
chain: {TAMRA}-DLGSYEIVNASDI
As for B3, binding with ATG8A (purified) was put at a Kd of 62.5 µM.

B4: UBA5 LIR (peptide)
chain: GPLHDDNEWNISVVDD
B4 displayed a Kd with HsUFM1 (purified) of 7.51 µM.

B5: HsC53 wt (purified) (natural protein)
chain: MEDHQHVPIDIQTSKLLDWLVDRRHCSLKWQSLVLTIREKINAAIQDMPESEEIAQLLSGSYIHYFHCLRILDLLKGTEASTKNIFGRYSSQRMKDWQEIIALYEKDNTYLVELSSLLVRNVNYEIPSLKKQIAKCQQLQQEYSRKEEECQAGAAEMREQFYHSCKQYGITGENVRGELLALVKDLPSQLAEIGAAAQQSLGEAIDVYQASVGFVCESPTEQVLPMLRFVQKRGNSTVYEWRTGTEPSVVERPHLEELPEQVAEDAIDWGDFGVEAVSEGTDSGISAEAAGIDWGIFPESDSKDPGGDGIDWGDDAVALQITVLEAGTQAPEGVARGPDALTLLEYTETRNQFLDELMELEIFLAQRAVELSEEADVLSVSQFQLAPAILQGQTKEKMVTMVSVLEDLIGKLTSLQLQHLFMILASPRYVDRVTEFLQQKLKQSQLLALKKELMVQKQQEALEEQAALEPKLDLLLEKTKELQKLIEADISKRYSGRPVNLMGTSL
Turning to B5, the Kd with GABARAP (purified) is 20.9 µM.
With B6, the Kd came to 94.3 µM with cAIM mut and 176 µM with sAIM3.
